Laboratory results as given in PMC9352680, “A comprehensive thermodynamic model for RNA binding by the Saccharomyces cerevisiae Pumilio protein PUF4”.
Substitutions are numbered along the chain they refer to. Names may count otherwise.

T1: PUF4 RNA-binding domain (Saccharomyces cerevisiae, UniProt P25339 537-888)
T1 sequence: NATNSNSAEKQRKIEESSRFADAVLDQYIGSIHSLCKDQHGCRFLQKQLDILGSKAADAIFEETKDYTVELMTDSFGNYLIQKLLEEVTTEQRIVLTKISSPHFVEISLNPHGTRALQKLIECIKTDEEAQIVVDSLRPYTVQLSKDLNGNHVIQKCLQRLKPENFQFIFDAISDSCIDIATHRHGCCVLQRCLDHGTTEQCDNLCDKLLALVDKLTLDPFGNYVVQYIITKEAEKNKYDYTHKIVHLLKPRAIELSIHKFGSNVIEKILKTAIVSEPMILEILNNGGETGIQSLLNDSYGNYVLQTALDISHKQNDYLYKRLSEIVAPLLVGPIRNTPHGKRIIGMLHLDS

B1: Ie_S2_P5E.1_K5.1_C5.1_H5.1_[+2CTCTC]_A5.1_F5.1_T5.1 (ssRNA)
RNA: UUUGAUUAAUAUGAUAUCGUUCUUUCUUGCUCUCUAUUAUUAUUCUUUCUCGAUAUCAUAUUAAUCUUU
B2: Ie_S2_P5E.1_K5.1_C5.1_H5.1_[+4TTCCT]_A5.1_F5.1_T5.1 (ssRNA)
RNA: B1 RNA with C30U, U31A, C32U, U35C, A36U
B3: Ie_S2_P5E.1_K5.1_C5.1_H5.1_A5.1_[+6TTCCT]_F5.1_T5.1 (ssRNA)
RNA: B1 RNA with C30U, U31A, C32U, C34U, A36C, U37C
B4: Ie_S2_P5E.1_K5.1_C5.1_H5.1_[+3TTCCT]_A5.1_F5.1_T5.1 (ssRNA)
RNA: B1 RNA with C30U, C32U, U33C
B5: Ie_S2_P5E.1_K5.1_C5.1_H5.1_[+4TCTCT]_A5.1_F5.1_T5.1 (ssRNA)
RNA: B1 RNA with C30U, U31A, C32U, U33C, C34U, U35C, A36U
B6: Ie_S2_P5E.1_K5.1_C5.1_H5.1_[+4CCCTT]_A5.1_F5.1_T5.1 (ssRNA)
RNA: B1 RNA with C30U, U31A, U33C, A36U
B7: Ie_S2_P5E.1_K5.1_C5.1_H5.1_[+3CCCTT]_A5.1_F5.1_T5.1 (ssRNA)
RNA: B1 RNA with C30U, U31C, U33C, C34U
B8: Ie_S2_P5E.1_K5.1_C5.1_H5.1_A5.1_[+5TTCCT]_F5.1_T5.1 (ssRNA)
RNA: B1 RNA with C30U, U31A, C32U, C34U, U35C, A36C
B9: Ie_S2_P5E.1_K5.1_C5.1_H5.1_[+2TCTCT]_A5.1_F5.1_T5.1 (ssRNA)
RNA: B1 RNA with C30U, U31C, C32U, U33C, C34U
B10: Ie_S2_P5E.1_K5.1_C5.1_H5.1_A5.1_[+6CCTCT]_F5.1_T5.1 (ssRNA)
RNA: B1 RNA with C30U, U31A, C32U, U35C, A36U, U37C
B11: Ie_S2_P5E.1_K5.1_C5.1_H5.1_A5.1_[+5TCTCT]_F5.1_T5.1 (ssRNA)
RNA: B1 RNA with C30U, U31A, C32U, A36C
B12: Ie_S2_P5E.1_K5.1_C5.1_H5.1_A5.1_[+5CTCTC]_F5.1_T5.1 (ssRNA)
RNA: B1 RNA with C30U, U31A, C32U, U33C, C34U, U35C, A36U, U37C
B13: Ie_S2_P5E.1_K5.1_C5.1_H5.1_A5.1_[+6TCTCT]_F5.1_T5.1 (ssRNA)
RNA: B1 RNA with C30U, U31A, C32U, C34U, U35C, A36U, U37C
B14: Ie_S2_P5E.1_K5.1_C5.1_H5.1_A5.1_[+5CCTCT]_F5.1_T5.1 (ssRNA)
RNA: B1 RNA with C30U, U31A, C32U, U33C, A36C
B15: Ie_S2_P5E.1_K5.1_C5.1_H5.1_[+2TTCCT]_A5.1_F5.1_T5.1 (ssRNA)
RNA: B1 RNA with C30U, U33C, C34U
B16: Ie_S2_P5E.1_K5.1_C5.1_H5.1_[+3CCTCT]_A5.1_F5.1_T5.1 (ssRNA)
RNA: B1 RNA with C30U, U31C
B17: Ie_S2_P5E.1_K5.1_C5.1_H5.1_A5.1_[+5CCCTT]_F5.1_T5.1 (ssRNA)
RNA: B1 RNA with C30U, U31A, C32U, U33C, U35C, A36U
B18: Ie_S2_P5E.1_K5.1_C5.1_H5.1_[+4CTCTC]_A5.1_F5.1_T5.1 (ssRNA)
RNA: B1 RNA with C30U, U31A, A36C
B19: Ie_S2_P5E.1_K5.1_C5.1_H5.1_[+2CCTCT]_A5.1_F5.1_T5.1 (ssRNA)
RNA: B1 RNA with U31C, C32U, U33C, C34U
B20: Ie_S2_P5E.1_K5.1_C5.1_H5.1_[+2TCTC]_A5.1_F5.1_T5.1 (ssRNA)
RNA: UUUGAUUAAUAUGAUAUCGUUCUUUCUUGUCUCUAUUAUUAUUCUUUCUCGAUAUCAUAUUAAUCUUU
B21: Ie_S2_P5E.1_K5.1_C5.1_H5.1_[+2CCCT]_A5.1_F5.1_T5.1 (ssRNA)
RNA: B20 RNA with U30C, U32C, C33U
B22: Ie_S2_P5E.1_K5.1_C5.1_H5.1_[+3TCTC]_A5.1_F5.1_T5.1 (ssRNA)
RNA: B20 RNA with C31U, U32C, C33U, U34C
B23: Ie_S2_P5E.1_K5.1_C5.1_H5.1_A5.1_[+6TCTC]_F5.1_T5.1 (ssRNA)
RNA: B20 RNA with C31A, C33U, A35C, U37C
B24: Ie_S2_P5E.1_K5.1_C5.1_H5.1_[+2CCTC]_A5.1_F5.1_T5.1 (ssRNA)
RNA: B20 RNA with U30C
B25: Ie_S2_P5E.1_K5.1_C5.1_H5.1_A5.1_[+6CCCT]_F5.1_T5.1 (ssRNA)
RNA: B20 RNA with C31A, C33U, U34C, A35C, U36C
B26: Ie_S2_P5E.1_K5.1_C5.1_H5.1_A5.1_[+6CCTC]_F5.1_T5.1 (ssRNA)
RNA: B20 RNA with C31A, C33U, U34C, A35C, U37C
B27: Ie_S2_P5E.1_K5.1_C5.1_H5.1_[+3CCTC]_A5.1_F5.1_T5.1 (ssRNA)
RNA: B20 RNA with U32C, C33U, U34C
B28: Ie_S2_P5E.1_K5.1_C5.1_H5.1_[+2TTCC]_A5.1_F5.1_T5.1 (ssRNA)
RNA: B20 RNA with C31U, U32C
B29: Ie_S2_P5E.1_K5.1_C5.1_H5.1_[+3TTT]_A5.1_F5.1_T5.1 (ssRNA)
RNA: UUUGAUUAAUAUGAUAUCGUUCUUUCUUGUUUUAUUAUUAUUCUUUCUCGAUAUCAUAUUAAUCUUU
B30: Ie_S2_P5E.1_K5.1_C5.1_H5.1_A5.1_[+5TTT]_F5.1_T5.1 (ssRNA)
RNA: B29 RNA with U31A, A34U
B31: Ie_S2_P5E.1_K5.1_C5.1_H5.1_[+4CTT]_A5.1_F5.1_T5.1 (ssRNA)
RNA: B29 RNA with U31A, U32C, A34U
B32: Ie_S2_P5E.1_K5.1_C5.1_H5.1_[+4TCC]_A5.1_F5.1_T5.1 (ssRNA)
RNA: B29 RNA with U31A, U33C, A34C
B33: Ie_S2_P5E.1_K5.1_C5.1_H5.1_[+3TTC]_A5.1_F5.1_T5.1 (ssRNA)
RNA: B29 RNA with U33C
B34: Ie_S2_P5E.1_K5.1_C5.1_H5.1_A5.1_[+7CCT]_F5.1_T5.1 (ssRNA)
RNA: B29 RNA with U31A, U35C, U36C, A37U
B35: Ie_S2_P5E.1_K5.1_C5.1_H5.1_A5.1_[+6TCT]_F5.1_T5.1 (ssRNA)
RNA: B29 RNA with U31A, A34U, U35C
B36: Ie_S2_P5E.1_K5.1_C5.1_H5.1_A5.1_F5.1_[+8CCT]_T5.1 (ssRNA)
RNA: B29 RNA with U31A, U36C, A37C
B37: Ie_S2_P5E.1_K5.1_C5.1_H5.1_A5.1_[+6TTC]_F5.1_T5.1 (ssRNA)
RNA: B29 RNA with U31A, A34U, U36C
B38: Ie_S2_P5E.1_K5.1_C5.1_H5.1_[+3CCC]_A5.1_F5.1_T5.1 (ssRNA)
RNA: B29 RNA with U31C, U32C, U33C
B39: Ie_S2_P5E.1_K5.1_C5.1_H5.1_A5.1_[+7CTC]_F5.1_T5.1 (ssRNA)
RNA: B29 RNA with U31A, U35C, A37C
B40: Ie_S2_P5E.1_K5.1_C5.1_H5.1_[+3TCC]_A5.1_F5.1_T5.1 (ssRNA)
RNA: B29 RNA with U32C, U33C
B41: Ie_S2_P5E.1_K5.1_C5.1_H5.1_[+3CTC]_A5.1_F5.1_T5.1 (ssRNA)
RNA: B29 RNA with U31C, U33C
B42: Ie_S2_P5E.1_K5.1_C5.1_H5.1_[+4TTC]_A5.1_F5.1_T5.1 (ssRNA)
RNA: B29 RNA with U31A, A34C
B43: Ie_S2_P5E.1_K5.1_C5.1_H5.1_A5.1_[+7CC]_F5.1_T5.1 (ssRNA)
RNA: UUUGAUUAAUAUGAUAUCGUUCUUUCUUGUAUUACCUUAUUCUUUCUCGAUAUCAUAUUAAUCUUU
B44: Ie_S2_P5E.1_K5.1_C5.1_H5.1_A5.1_F5.1_[+9TT]_T5.1 (ssRNA)
RNA: B43 RNA with C35U, C36U
B45: Ie_S2_P5E.1_K5.1_C5.1_H5.1_A5.1_[+7TC]_F5.1_T5.1 (ssRNA)
RNA: B43 RNA with C35U
B46: Ie_S2_P5E.1_K5.1_C5.1_H5.1_A5.1_F5.1_[+9T]_T5.1 (ssRNA)
RNA: UUUGAUUAAUAUGAUAUCGUUCUUUCUUGUAUUAUUUAUUCUUUCUCGAUAUCAUAUUAAUCUUU
B47: Ib_S2_P3E.1_K3.1_C3.1_H3.1_[T1C]_[T3C]_A3.1_F3.1_T3.1 (ssRNA)
RNA: UUUGAUUAAUAUGAUAUCGUUCUUUCUCGCAUAUAUUCUUUCUCGAUAUCAUAUUAAUCUUU
B48: Ib_S2_P3E.1_K3.1_C3.1_H3.1_[G2C]_[T3C]_A3.1_F3.1_T3.1 (ssRNA)
RNA: B47 RNA with C28U, G29C
B49: Ib_S2_P3E.1_K3.1_C3.1_H3.1_[T1G]_[A4C]_A3.1_F3.1_T3.1 (ssRNA)
RNA: B47 RNA with C28G, C30U, A31C
B50: Ib_S2_P3E.1_K3.1_C3.1_H3.1_[G2T]_[T3A]_A3.1_F3.1_T3.1 (ssRNA)
RNA: B47 RNA with C28U, G29U, C30A
B51: Ib_S2_P3E.1_K3.1_C3.1_H3.1_[T1G]_[A4G]_A3.1_F3.1_T3.1 (ssRNA)
RNA: B47 RNA with C28G, C30U, A31G

Molecular target: T1, PUF4 RNA-binding domain
Assay: Mg; RNA-MaP; 20 mM Na-HEPES pH 7.4, 30 mM KOAc, 0.75 mM MgCl2, 0.1% Tween-20, 5% glycerol, 0.1 mg/mL BSA, 2 mM DTT; 25 C; 0.0125-409.6 nM protein
Settings: tags: N-His6-TEV cleaved; C-SNAP kept, Cy3B-labelled; label: tethered on chip by stalled RNA polymerase

Row | Binder | Kd [nM]
1 | B1 | 724
2 | B2 | 18.1
3 | B3 | 12.3
4 | B4 | 46.3
5 | B5 | 10.5
6 | B6 | 6.38
7 | B7 | 54.6
8 | B8 | 13.2
9 | B9 | 39.3
10 | B10 | 20.8
11 | B11 | 9.67
12 | B12 | 13.3
13 | B13 | 12.9
14 | B14 | 12.8
15 | B15 | 27.4
16 | B16 | 35.3
17 | B17 | 16.3
18 | B18 | 7.93
19 | B19 | > 2300
20 | B20 | 34.8
21 | B21 | 1170
22 | B22 | 56.2
23 | B23 | 75.2
24 | B24 | 1100
25 | B25 | 15.6
26 | B26 | 99.6

Row | Binder | Kd [nM]
27 | B27 | 127
28 | B28 | 37.6
29 | B29 | 11.3
30 | B30 | 1.6
31 | B31 | 1.36
32 | B32 | 2.6
33 | B33 | 7.67
34 | B34 | 31.6
35 | B35 | 2.42
36 | B36 | 16.6
37 | B37 | 28.6
38 | B38 | 24.4
39 | B39 | 42.2
40 | B40 | 11.4
41 | B41 | 10.1
42 | B42 | 2.96
43 | B43 | 58.9
44 | B44 | 8.73
45 | B45 | 11.8
46 | B46 | 5.9
47 | B47 | > 2300
48 | B48 | > 2300
49 | B49 | > 2300
50 | B50 | 1460
51 | B51 | 10.7
